From US20040053383A1, “Crystals of cytochrome P450 2C9, structures thereof and their use” (ASTEX TECHNOLOGY LTD., priority 2001, published 2004)

What was measured:
2C19 = 2C19 (Homo sapiens, UniProt P33261); conditions: cited from earlier work
P450 2C9 [1] = test: Functionality assay with methoxy-4-(trifluoromethyl)-coumarin as fluorescent substrate (Examples 6 and 8); format: biochemical, human; conditions: 140 μM methoxy-4-(trifluoromethyl)-coumarin, 37° C.
Description: Activity assays on P450 2C9 were performed in a 96-well plate assay format with a Fluoroscan Ascent FL Instruments (Labsystem), using the methoxy-4-(trifluoromethyl)-coumarin as a fluorescent substrate.
(§1) Fifteen pmoles of P450 were reconstituted with 0.1 unit of purified human oxidoreductase, in presence of 140 μM of substrate methoxy-4-(trifluoromethyl)-coumarin, a NADPH regenerating system that includes 0.15 mM NADP^+, 0.38 mM Glucose-6-phosphate and 2.9 unit/ml glucose-6-phosphate dehydrogenase in 170 μl final volume of 25 mM KPi, pH 7.4, 0.38 mM MgCl2 Incubations were performed at 37° C. for several minutes and 7-hydroxy-4-(trifluoromethyl)-coumarin was used as metabolite standard to determinate the metabolic rate. The excitation and emission wavelengths used were respectively 409 and 530 nm.
as §1, with “MgCl2.” for “MgCl2”, “The excitation and emission wavelengths used were respectively 409 and 530 nm.” left out

P450 2C9 [2] = format: biochemical, human
Description: Activity assays on P450 2C9 were performed in a 96-well plate assay format with a Fluoroscan Ascent FL Instruments (Labsystem), using the 7-methoxy-4-(trifluoromethyl)-coumarin as a fluorescent substrate.

Molecule	7-MFC (2C19)	activity with 2C9 substrate (P450 2C9 [1])	7-MFC (P450 2C9 [2])
2C19: human cytochrome P450 2C19, published data (protein, UniProt P33261 1-490, looked up) Cytochrome P450 2C19: MDPFVVLVLCLSCLLLLSIWRQSSGRGKLPPGPTPLPVIGNILQIDIKDVSKSLTNLSKIYGPVFTLYFGLERMVVLHGYEVVKEALIDLGEEFSGRGHFPLAERANRGFGIVFSNGKRWKEIRRFSLMTLRNFGMGKRSIEDRVQEEARCLVEELRKTKASPCDPTFILGCAPCNVICSIIFQKRFDYKDQQFLNLMEKLNENIRIVSTPWIQICNNFPTIIDYFPGTHNKLLKNLAFMESDILEKVKEHQESMDINNPRDFIDCFLIKMEKEKQNQQSEFTIENLVITAADLLGAGTETTSTTLRYALLLLLKHPEVTAKVQEEIERVIGRNRSPCMQDRGHMPYTDAVVHEVQRYIDLIPTSLPHAVTCDVKFRNYLIPKGTTILTSLTSVLHDNKEFPNPEMFDPRHFLDEGGNFKKSNYFMPFSAGKRICVGEGLARMELFLFLTFILQNFNLKSLIDPKDLDTTPVVNGFASVPPFYQLCFIPV	2.98 min⁻¹	–	–
Clone 1155: 2C9-FGloop with the substitution Lys206Glu (protein) MAKKTSSKGRPPGPTPLPVIGNILQIGIKDISKSLTNLSKVYGPVFTLYFGLKPIVVLHGYEAVKEALIDLGEEFSGRGIFPLAERANRGFGIVFSNGKKWKEIRRFSLMTLRNFGMGKRSIEDRVQEEARCLVEELRKTKASPCDPTFILGCAPCNVICSIIFHKRFDYKDQQFLNLMEKLNENIEILSSPWIQVYNNFPALLDYFPGTHNKLLKNVAFMKSYILEKVKEHQESMDMNNPQDFIDCFLMKMEKEKHNQPSEFTIESLENTAVDLFGAGTETTSTTLRYALLLLLKHPEVTAKVQEEIERVIGRNRSPCMQDRSHMPYTDAVVHEVQRYIDLLPTSLPHAVTCDIKFRNYLIPKGTTILISLTSVLHDNKEFPNPEMFDPHHFLDEGGNFKKSKYFMPFSAGKRICVGEALAGMELFLFLTSILQNFNLKSLVDPKNLDTTPVVNGFASVPPFYQLCFIPVHHHH	–	0.083 pmol/min/pmol P450	0.23 min⁻¹
